{"source": "patent US20250295796A1", "about": "“CELL PENETRATING POLYPEPTIDES (CPPS) AND THEIR USE IN HUMAN THERAPY” (RDP PHARMA AG, priority 2021, published 2025)", "molecules": {"B1": {"name": "CROMOC36: single chain PvuII endonuclease fused at its C-terminus to DDM36, PEGylated final product used in the Examples (protein)", "chain": "MSHPDLNKLLELWPHIQEYQDLALKHGINDIFQDNGGKLLQVLLITGLTVLPGREGNDAVDNAGQEYELKSINIDLTKGFSTHHHMNPVIIAKYRQVPWIFAIYRGIAIEAIYRLEPKDLEFYYDKWERKWYSDGHKDINNPKIPVKYVMEHGTKIYGSGGSGGSSHPDLNKLLELWPHIQEYQDLALKHGINDIFQDNGGKLLQVLLITGLTVLPGREGNDAVDNAGQEYELKSINIDLTKGFSTHHHMNPVIIAKYRQVPWIFAIYRGIAIEAIYRLEPKDLEFYYDKWERKWYSDGHKDINNPKIPVKYVMEHGTKIYGNSGSGKKKKKGKGSGLGSGKKKDPLGSGLGSGKKKKKGKGSGLGSGKKKDPLGST", "modifications": "PEGylated; peptide, CROMOC36"}}, "key": {"HEPG2": {"test_system": "HEPG2", "experiment": "Monolayer assay, 96h treatment, HEPG2", "assay_type": "cell-based, human", "details": "HEPG2, 96h treatment", "protocol": "(§1) Monolayer Assay Propidium Iodid (PI). Cells were harvested from exponential phase cultures, counted and depending on the cell line 3.000 to 20.000 cells were plated in 96-well flat-bottom microtiter plates After a 24 h recovery period to allow cells to resume exponential growth, 10 μl of culture medium (four control wells/plate) or culture medium with the test compound were added by a liquid handling robotic system and treatment continued for four days. Compounds were applied in half-log increments at 10 concentrations in duplicate. Three independent experiments were performed. Cells were then washed with 200 μl PBS to remove dead cells followed by addition of 200 μl of a solution containing 7 μg/ml propidium iodide (PI) and 0.1% (v/v) Triton X-100. After an incubation period of 1-2 h at room temperature, fluorescence (FU) was measured using the Cytofluor 4000 microplate reader (excitation λ=530 nm, emission λ=620 nm) to quantify the amount of attached viable cells. Concentrations required for 50% inhibition of cell growth (IC50) were calculated by non-linear regression (log[conc. of inhibitor]versus response (% T/C)) using the analysis software GraphPad Prism®, Prism 5 for windows, version 5.01 (GraphPad Software Inc., CA).\n(§2) CROMOC36—in vitro activity Human hepatocellular carcinoma cell lines IC50 values of CROMOC36 and Sorafenib, 96h treatment. […]"}, "LIXF 575L": {"test_system": "LIXF 575L", "experiment": "Monolayer assay, 96h treatment, LIXF 575L", "assay_type": "cell-based, human", "protocol": "as §1, §2"}, "primary hepatocytes": {"test_system": "primary hepatocytes", "experiment": "SRB assay for 96 hours, primary hepatocytes", "assay_type": "cell-based", "details": "non-tumor cells primary hepatocytes, SRB 96 hours", "protocol": "Cells were harvested from exponential phase cultures, and depending on the cell line 10.000 to 30.000 cells were plated in 96-well flat-bottom microtiter plates. […] Compounds were applied at 9 concentrations eight wells/concentration). At least three independent experiments were performed. For SRB staining, cells were fixed with SRB01 for 1h at 4° C. (final concentration of TCA=10%) washed with a plate washer (Hydroflex, Tecan©) for five times with H2O; and stained with 100 μl of SRB02 at room temperature for 10 min following 4 washes in SRB03 and finally 100 μl of developer solution SRB04 for 5 minutes with shaking. Optical density was assessed using a plate-reader (Sunrise, Tecan©) at 540 nm. Concentrations required for 50% inhibition of cell growth (IC50) were calculated by non-linear regression (log[conc. of inhibitor] versus response (% T/C)) using the analysis software GraphPad Prism®, Prism 5 for windows, version 5.01 (GraphPad Software Inc., CA). (SRB Buffers FIG. 25)."}, "[1]": {"test_system": "DNA double strand breaks (Phospho-H2AX, Phospho-H3)", "experiment": "Immunohistochemistry of liver specimens after single IV treatment", "assay_type": "in vivo, Male Sprague Dawley Rats", "details": "samples after 13-15 days", "from_the_text": "FIG. 8: Immunohistochemistry (IHC) analysis paraffin embedded liver specimens of Male Sprague Dawley Rats after single IV treatment with CROMOC36. Samples were collected after 13-15 days and IHC was used to assess the Histone surrogate-markers for DNA double strand breaks Phospho-H2AX and Phospho-H3 for analyzing the persistence of DNA double stand breaks (DSBs) at very high CROMOC concentrations in tumors in comparison to the KI67marker.\nAs a proof of the nuclease activity in vivo an Immunohistochemistry (IHC) analysis of paraffin embedded liver specimens of Male Sprague Dawley Rats after single IV treatment with CROMOC36."}, "[2]": {"experiment": "Toxicology experiments and various tumor models, cardiotoxicity", "assay_type": "in vivo"}}, "data": [{"molecule": "B1", "values": [{"measurement": "IC50", "setting": "HEPG2", "result": 13.7, "unit": "nM"}, {"measurement": "IC50", "setting": "LIXF 575L", "result": 17, "unit": "nM"}, {"measurement": "IC50", "setting": "primary hepatocytes", "result": "> 10000", "unit": "nM"}, {"measurement": "DNA double strand breaks in liver (Phospho-H2AX, Phospho-H3 IHC)", "setting": "[1]", "result": "DSBs are induced"}, {"measurement": "cardiotoxic effects", "setting": "[2]", "result": "no cardiotoxic effects were observed"}]}]}
